Laboratory results reported in article PMC11992040.

Legend:
[1] = biological target: SmT1 (CT), resistin-trimerized SARS-CoV-2 spike ectodomain with complex-type N-glycans (SARS-CoV-2 | human) (UniProt P0DTC2); experiment: SEC
[2] = biological target: SmT2 (CT), T4 foldon-trimerized SARS-CoV-2 spike ectodomain with complex-type N-glycans (SARS-CoV-2 | bacteriophage T4) (UniProt P0DTC2); experiment: SEC-MALS
[3] = biological target: SmT2 (HM), T4 foldon-trimerized SARS-CoV-2 spike ectodomain with high-mannose N-glycans (SARS-CoV-2 | bacteriophage T4) (UniProt P0DTC2); experiment: SEC-MALS

## SmT1 (CT), resistin-trimerized SARS-CoV-2 spike ectodomain with complex-type N-glycans (from UniProt P0DTC2;Q9HD89-1)
[1]
  stoichiometry N: 3

## SmT2 (CT), T4 foldon-trimerized SARS-CoV-2 spike ectodomain with complex-type N-glycans (from UniProt P0DTC2 14-1208)
[2]
  stoichiometry N: 3

## SmT2 (HM), T4 foldon-trimerized SARS-CoV-2 spike ectodomain with high-mannose N-glycans (from UniProt P0DTC2 14-1208)
[3]
  stoichiometry N: 3
